Legend:
[1] = system: mouse IgG1 (Fc)-LAP-MMP-IFN
[2] = target: mouse IgG1 (Fc)-LAP-MMP-IFN; assay: cell-based or functional assay

recombinant MMP-1, sequence (P03956 100-469): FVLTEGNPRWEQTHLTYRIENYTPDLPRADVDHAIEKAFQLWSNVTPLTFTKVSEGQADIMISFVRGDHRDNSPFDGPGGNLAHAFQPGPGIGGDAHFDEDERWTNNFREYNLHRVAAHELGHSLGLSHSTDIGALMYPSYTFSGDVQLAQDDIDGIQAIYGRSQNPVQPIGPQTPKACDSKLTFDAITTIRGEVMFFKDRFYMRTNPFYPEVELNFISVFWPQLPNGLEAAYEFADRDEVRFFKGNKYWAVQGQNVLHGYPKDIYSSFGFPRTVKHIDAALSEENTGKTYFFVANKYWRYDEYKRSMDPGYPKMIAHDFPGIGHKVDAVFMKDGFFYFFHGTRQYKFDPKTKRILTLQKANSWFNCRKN
mouse IgG1 (Fc)-LAP-MMP-IFN, sequence (chain, as listed by the source): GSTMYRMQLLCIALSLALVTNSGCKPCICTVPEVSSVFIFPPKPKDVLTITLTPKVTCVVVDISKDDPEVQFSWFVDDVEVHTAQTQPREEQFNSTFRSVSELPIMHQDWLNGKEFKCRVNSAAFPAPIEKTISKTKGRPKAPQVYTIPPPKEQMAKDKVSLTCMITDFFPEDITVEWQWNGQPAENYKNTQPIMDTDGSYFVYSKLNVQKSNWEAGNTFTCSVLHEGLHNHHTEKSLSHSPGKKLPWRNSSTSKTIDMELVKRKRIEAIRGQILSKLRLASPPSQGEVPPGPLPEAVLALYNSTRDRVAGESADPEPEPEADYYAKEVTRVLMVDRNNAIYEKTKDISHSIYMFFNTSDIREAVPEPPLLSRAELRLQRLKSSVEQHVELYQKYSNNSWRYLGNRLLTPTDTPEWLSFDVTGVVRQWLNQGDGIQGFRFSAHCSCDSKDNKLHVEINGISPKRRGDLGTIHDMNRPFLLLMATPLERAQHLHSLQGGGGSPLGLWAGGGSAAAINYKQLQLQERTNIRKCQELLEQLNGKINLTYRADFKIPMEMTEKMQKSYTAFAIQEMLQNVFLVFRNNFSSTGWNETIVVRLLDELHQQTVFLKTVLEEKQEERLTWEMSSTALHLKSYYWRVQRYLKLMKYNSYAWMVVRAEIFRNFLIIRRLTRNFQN

Row | Substance | IFN biological activity (U/ml) [1] [U/ml] | cleavage of Ig-LAP-IFN by MMP1 (western blot with anti-LAP antibodies after non-denaturing SDS-PAGE) [1] | Luciferase activity (viability of L929 cells after EMC virus infection) [2]
1 | recombinant MMP-1 | 30 | The molecular weight of the cleaved Ig-LAP corresponds to the expected size of about 160 kDa. | –
2 | recombinant MMP-1 (enzyme) | – | – | 5070

From patent US20200062814A1
